# Test results as given in patent publication US20250101394, “NOVEL CRISPR-CAS12I SYSTEMS AND USES THEREOF” (Huidagene Therapeutics (Singapore) PTE. LTD., published 2025).
# Substitutions are numbered along the chain they refer to.
# T1: xCas12i (SiCas12i, Cas12i12) (unidentified)
# T1 chain: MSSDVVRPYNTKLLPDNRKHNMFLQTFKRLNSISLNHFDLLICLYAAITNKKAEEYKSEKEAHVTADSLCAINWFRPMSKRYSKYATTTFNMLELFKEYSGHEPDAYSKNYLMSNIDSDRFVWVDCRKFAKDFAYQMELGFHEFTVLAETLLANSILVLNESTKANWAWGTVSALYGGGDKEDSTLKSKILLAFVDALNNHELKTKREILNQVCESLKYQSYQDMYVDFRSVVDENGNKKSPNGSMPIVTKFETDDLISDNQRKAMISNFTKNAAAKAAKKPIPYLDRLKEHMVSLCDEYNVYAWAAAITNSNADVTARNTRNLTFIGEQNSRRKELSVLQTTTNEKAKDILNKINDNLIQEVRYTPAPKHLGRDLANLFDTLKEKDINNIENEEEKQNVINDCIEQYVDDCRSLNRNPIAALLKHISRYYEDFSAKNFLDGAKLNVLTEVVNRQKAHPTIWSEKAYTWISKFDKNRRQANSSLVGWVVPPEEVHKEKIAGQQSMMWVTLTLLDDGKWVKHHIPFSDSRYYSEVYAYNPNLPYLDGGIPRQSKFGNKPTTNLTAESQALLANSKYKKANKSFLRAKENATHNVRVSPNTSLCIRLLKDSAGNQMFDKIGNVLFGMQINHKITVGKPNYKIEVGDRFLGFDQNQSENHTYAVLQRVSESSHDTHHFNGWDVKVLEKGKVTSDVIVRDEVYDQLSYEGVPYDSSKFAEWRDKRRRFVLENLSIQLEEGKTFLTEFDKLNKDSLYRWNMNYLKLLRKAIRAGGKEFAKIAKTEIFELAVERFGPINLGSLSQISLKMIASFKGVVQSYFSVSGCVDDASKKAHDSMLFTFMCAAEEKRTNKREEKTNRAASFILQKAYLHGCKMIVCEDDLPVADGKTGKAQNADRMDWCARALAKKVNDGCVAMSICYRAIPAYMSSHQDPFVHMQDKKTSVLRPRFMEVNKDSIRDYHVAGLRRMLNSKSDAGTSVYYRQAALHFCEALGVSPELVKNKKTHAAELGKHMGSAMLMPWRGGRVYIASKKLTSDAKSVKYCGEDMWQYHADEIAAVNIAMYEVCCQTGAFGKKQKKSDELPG
# T2: Cas12Max (xCas12i-N243R, v1.1) (synthetic construct)
# T2 chain: T1 chain with N243R
# T3: xCas12i-A165R (synthetic construct, A165R)
# T3 chain: T1 chain with A165R
# B1: crEGFP guide with DR-T1 ; EGxxxxFP insertion target (ssRNA ; dsDNA)
# RNA: AUGACUCAGAAAUGUGUCCCCAGUUGACACCCAUUACAGUAGGAGCAUAC
# DNA 1: GGATCCGTGTCTTTCCCATTACAGTAGGAGCATACGGGAGACAAGCTTTG
# DNA 2: CAAAGCTTGTCTCCCGTATGCTCCTACTGTAATGGGAAAGACACGGATCC
# Legend:
# Details in all cases: tags: N-term SV40 NLS, C-term NP NLS
# [1] = molecular target: T1, xCas12i (SiCas12i, Cas12i12); experiment: cell_activity; 5' TTN PAM; EGFP reporter HEK293T; DR-T1
# Excerpt: To vary xCas12i's dsDNA cleavage activity and expand its scope of PAM site recognition, the applicant engineered xCas12i protein via mutagenesis and screened for mutants with higher dsDNA cleavage activity and broader PAM using a dual plasmid fluorescent reporter system similar to the dual plasmid fluorescent reporter system in Example 1, except that the EGxxxxFP-targeting guide RNA (SEQ ID NO: 51; “crON”) coding sequence operably linked to U6 promoter was not located on the expression plasmid together with the xCas12i (or its mutant) coding sequence (SEQ ID NO: 31) but located on the reporter plasmid together with the BFP-P2A-EGxxxxFP coding sequence (SEQ ID NO: 41) (referring to “On-Target Reporter” in FIG. 1B). […] The applicant then individually transfected the expression plasmid and the reporter plasmid into HEK293T cells and analyzed them by FACS (FIG. 1B). […]
# [2] = molecular target: T2, Cas12Max (xCas12i-N243R, v1.1); experiment: cell_activity; 5' TTN PAM; EGFP reporter HEK293T
# [3] = molecular target: T3, xCas12i-A165R; experiment: cell_activity; 5' TTN PAM; EGFP reporter HEK293T
binder,measurement,setting,value
B1,binding signal,[1],1 fold of WT
same,binding signal,[2],3.61 fold of WT
same,binding signal,[3],3.15 fold of WT
